Biological target: recombinant mouse IGF-1 (insulin-like growth factor 1) (mouse, UniProt P05017 49-118)
Assay: cell-based or functional assay

recombinant mouse IGF-1 (insulin-like growth factor 1), sequence (P05017 49-118): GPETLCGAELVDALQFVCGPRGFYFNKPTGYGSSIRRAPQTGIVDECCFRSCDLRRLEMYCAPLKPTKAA

PI3K phosphorylation (Western blot) in P10 RGCs after co-administration of IGF-1 and IGFBPL1, compared to the control group: 6 fold
mTOR phosphorylation (Western blot) in P10 RGCs after co-administration of IGF-1 and IGFBPL1, compared to the control group: 3 fold
B1: recombinant mouse IGFBPL1 (insulin-like growth factor binding protein-like 1) (natural protein, UniProt Q80W15 18-270, looked up)
chain: LGLRDAGRRHPECSPCQQDRCPAPSPCPAPWISARDECGCCARCLGAEGASCGGPVGSRCGPGLVCASRASGTAPEGTGLCVCAQRGAVCGSDGRSYSSICALRLRARHAPRAHHGHLHKARDGPCEFAPVVLMPPRDIHNVTGTQVFLSCEVKAVPTPVITWKKVKHSPEGTEGLEELPGDHVNIAVQVRGGPSDHETTSWILINPLRKEDEGVYHCHAANAIGEAQSHGTVTVLDLNRYKSLYSSVPGDLL
